From patent US20200308299A1, “ANTI-GPC-1 ANTIBODY” (National University Corporation Kochi University, priority 2017, published 2020)

B1: clone 01a033 (antibody)
heavy: QVQLKQSGPELVKPGASVKISCKASGYSFTGYYMHWVKQSPEKSLEWIGEINPSTGDTTYNQKFKAKATLTVDKSSSTAYMQLKSLTSEDSAVYYCAREKRDDGVFAYWGQGTLVTVSSAKTTAPSVYPLAPVCGDTTGSSVTLGCLVKGYFPEPVTLTWNSGSLSSGVHTFPAVLQSDLYTLSSSVTVTSSTWPSQSITCNVAHPASSTKVDKKIEPRGPTIKPCPPCKCPAPNLLGGPSVFIFPPKIKDVLMISLSPIVTCVVVDVSEDDPDVQISWFVNNVEVHTAQTQTHREDYNSTLRVVSALPIQHQDWMSGKEFKCKVNNKDLPAPIERTISKPKGSVRAPQVYVLPPPEEEMTKKQVTLTCMVTDFMPEDIYVEWTNNGKTELNYKNTEPVLDSDGSYFMYSKLRVEKKNWVERNSYSCSVVHEGLHNHHTTKSFSRTPGK
light: DIVMSQSPKSMSMSVGERVALSCKASENVGTYVSWYQQKPEQSPKLLIYGASNRYTGVPDRFTGSGSATDFTLTISSVQAEDLADYYCGQSYSYPLTFGAGTKLELKRADAAPTVSIFPPSSEQLTSGGASVVCFLNNFYPKDINVKWKIDGSERQNGVLNSWTDQDSKDSTYSMSSTLTLTKDEYERHNSYTCEATHKTSTSPIVKSFNRNEC
B2: GPC1 ADC (conjugate)
heavy: B1 heavy
light: B1 light

Columns and labels:
DU145 cells = assay: ADC assay combining anti-GPC-1 antibody and MMAF binding secondary antibody in DU145 cells; type: cell-based
[1] = Safety test on anti-GPC1 antibody 01a033 using mice; type: in vivo, mouse; details: 1 mg/body ip, C57BL/6J mice, day 7
Protocol: The following items were evaluated on day 7.
Blood collection endpoints: WBC, RBC, Hb, Plt, T-Bil, ALT, ALP, Amy, BUN, Cr, Ca, P, TP, Alb, Na, K, Glob, and Glu, automatic blood cell counter: VetScan HMII, animal biochemical blood analyzer: VetScan VS2.

[2] = test system: TE4, TE5, TE6, TE8, TE9, TE10, TE11, TE14, TE15, HeLa, ME180; assay: In vitro antitumor effect of unlabeled antibody (CellTiter-Glo); type: cell-based; details: 6 days
Protocol: 2000 cells were added to a 96-well plate at 90 μl. The cells were cultured overnight at 37° C. in a 5% CO2 incubator. The next day, 10 μl of an unlabeled primary antibody concentrated […] relative to the final concentration was added to each well, so that the total amount was 100 μl. The cells were cultured for 6 days at 37° C. in a 5% CO2 incubator. The cell viability was measured by using a CellTiter-Glo Luminescent Cell Viability Assay reagent to detect the amount of ATP.

BxPC3 cells = assay: In vitro ADC assay, BxPC3 cells; type: cell-based, human; details: BxPC3, 144 hours
Protocol: (§1) Preparation of a conjugate of mouse anti-Glypican-1 mAb (01a033), mouse IgG2a (biolegend #400224) as a control, and mc-vc-PAB-MMAF was commissioned to MORADEC. An anticancer agent was conjugated to a cysteine residue via a cleavable linker. The DAR (drug-antibody ratio) was as follows. GPC1-CL-MMAF DAR=3.8, mouse IgG2a-CL-MMAF DAR=4.1.
(§2) (1) The cells were seeded on Thermo Fisher Scientific's 96-well white plate (model no.: 136101) (90 μl cell suspension). RPMI1640+10% FBS+100 U/ml penicillin+100 μg/ml streptomycin was used as the medium. The cells were seeded in 60 wells, and 100 μL of medium was added to 36 wells, and cultured in a 5% CO2 incubator at 37° C. (2) The next day, 10 μL of ADC was added to the cells (total amount: 100 μL). (3) After 144 hours of culture, a CellTiter-Glo™ Luminescence Cell Viability Assay reagent (Promega) was added and mixed at 100 μL/well. (4) Measurements were taken with a plate reader. (5) Analysis was conducted with GraphPad Prism 6.
(§3) The IC50 values were calculated from the following equation (Hossain M M, Hosono-Fukao T, Tang R, Sugaya N, van Kuppevelt T H, Jenniskens G J, Kimata K, Rosen S D, Uchimura K (2010) Direct detection of HSulf-1 and HSulf-2 activities on extracellular heparan sulphate and their inhibition by PI-88. Glycobiology 20(2): 175-186.)
(§4) IC50=10^(Log [A][B]×(50−C)/(D−C)+Log [B]) […]

[3] = test system: GPC1 positive esophageal cancer cell strains (TE4, TE5, TE6, TE8, TE9, TE10, TE11, TE14, TE15); assay: In vitro ADC assay, GPC1 positive esophageal cancer cell strains; type: cell-based; details: 144 hours of culture
Protocol: as §1, §2, §3, §4

Molecule | activity compared to MIL-38 (DU145 cells; DU145 cells) | growth suppressing effect against DU145 cells (DU145 cells; primary antibody plus MMAF secondary antibody 2 μg/ml, 3 days) | EC50 values against DU145 cells (DU145 cells; primary antibody plus MMAF secondary antibody, 3 days) | toxicity (blood cell count, biochemical blood analysis) [1] | antitumor effect in vitro [2] | effect of suppressing cell growth (BxPC3 cells) | effect of suppressing cell growth [3]
B1 | 37 fold | high growth suppressing effect | excellent EC50 values | Toxicity was not found | not observed against any cell strain | – | –
B2 | – | – | – | – | – | exhibits an effect of suppressing cell growth | exhibits an effect of suppressing cell growth
